Columns and labels:
Experiment in all cases: holdup assay
Parameters in all cases: key: below the threshold = too weak to quantify, mostly under pKd 3.1 to 4
[1] = molecular target: T1, LIN7A, O14910
T1 sequence (O14910 103-200, limits assumed, looked up): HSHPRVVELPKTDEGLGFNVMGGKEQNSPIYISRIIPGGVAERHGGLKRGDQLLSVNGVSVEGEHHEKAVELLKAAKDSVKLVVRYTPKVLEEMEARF

[2] = molecular target: T2, NHERF3_1, Q5T2W1
T2 sequence (Q5T2W1 4-100, limits assumed, looked up): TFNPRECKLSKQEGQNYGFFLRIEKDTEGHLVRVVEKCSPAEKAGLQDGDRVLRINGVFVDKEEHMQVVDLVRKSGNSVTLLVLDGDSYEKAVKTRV

[3] = molecular target: Inadl_2, Q8NI35
Inadl_2, Q8NI35, sequence (Q8NI35 238-335): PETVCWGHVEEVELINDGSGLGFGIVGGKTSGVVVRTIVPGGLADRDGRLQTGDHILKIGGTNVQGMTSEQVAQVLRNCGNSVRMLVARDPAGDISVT

[4] = molecular target: T3, LRRC7, Q96NW7
T3 sequence (Q96NW7 1440-1537, limits assumed, looked up): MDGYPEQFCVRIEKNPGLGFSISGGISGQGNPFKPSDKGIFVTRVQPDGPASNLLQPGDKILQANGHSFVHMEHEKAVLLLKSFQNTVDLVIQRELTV

[5] = molecular target: ARHGEF12, Q9NZN5-2
ARHGEF12, Q9NZN5-2, sequence (Q9NZN5 other isoform, or with tags, fused parts or gaps): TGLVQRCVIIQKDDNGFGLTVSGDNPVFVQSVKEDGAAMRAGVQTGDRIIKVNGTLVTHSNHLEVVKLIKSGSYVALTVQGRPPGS

[6] = molecular target: T4, RADIL, Q96JH8
T4 sequence (Q96JH8 971-1071, limits assumed, looked up): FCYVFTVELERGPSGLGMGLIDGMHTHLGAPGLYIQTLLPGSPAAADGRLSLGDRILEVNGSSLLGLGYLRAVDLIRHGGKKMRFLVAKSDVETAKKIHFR

[7] = molecular target: Inadl_5, Q8NI35
Inadl_5, Q8NI35, sequence (Q8NI35 673-780): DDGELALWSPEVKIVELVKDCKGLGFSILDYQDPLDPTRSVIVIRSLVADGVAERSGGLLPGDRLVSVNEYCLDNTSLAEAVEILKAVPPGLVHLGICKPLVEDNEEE

[8] = molecular target: MAST2, Q6P0Q8
MAST2, Q6P0Q8, sequence (Q6P0Q8 1099-1202): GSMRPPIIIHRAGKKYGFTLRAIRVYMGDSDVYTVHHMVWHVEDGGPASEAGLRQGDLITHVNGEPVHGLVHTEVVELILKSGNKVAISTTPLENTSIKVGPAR

[9] = molecular target: T5, MPP7, Q5T2T1
T5 sequence (Q5T2T1 134-230, limits assumed, looked up): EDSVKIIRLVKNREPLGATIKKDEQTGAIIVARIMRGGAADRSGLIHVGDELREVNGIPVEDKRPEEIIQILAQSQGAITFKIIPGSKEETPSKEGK

[10] = molecular target: T6, RHPN1, Q8TCX5
T6 sequence (Q8TCX5 508-602, limits assumed, looked up): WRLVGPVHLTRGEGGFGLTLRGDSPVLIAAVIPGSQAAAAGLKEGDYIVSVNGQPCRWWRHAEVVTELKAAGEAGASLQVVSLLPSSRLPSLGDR

[11] = molecular target: T7, NHERF3_4, Q5T2W1
T7 sequence (Q5T2W1 373-468, limits assumed, looked up): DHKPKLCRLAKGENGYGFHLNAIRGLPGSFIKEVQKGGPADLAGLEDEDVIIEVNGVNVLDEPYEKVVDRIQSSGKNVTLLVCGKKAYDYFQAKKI

[12] = molecular target: T8, PDZRN3_1, Q9UPQ7
T8 sequence (Q9UPQ7 244-349, limits assumed, looked up): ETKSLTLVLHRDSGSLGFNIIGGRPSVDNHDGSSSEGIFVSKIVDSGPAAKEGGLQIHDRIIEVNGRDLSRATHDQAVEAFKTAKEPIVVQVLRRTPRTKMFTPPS

[13] = molecular target: PICK1, Q9NRD5
PICK1, Q9NRD5, sequence (Q9NRD5 17-115): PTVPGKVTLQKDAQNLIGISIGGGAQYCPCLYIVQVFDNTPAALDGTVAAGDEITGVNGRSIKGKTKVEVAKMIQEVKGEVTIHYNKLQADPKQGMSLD

[14] = molecular target: T9, PCLO, Q9Y6V0
T9 sequence (Q9Y6V0 4491-4600, limits assumed, looked up): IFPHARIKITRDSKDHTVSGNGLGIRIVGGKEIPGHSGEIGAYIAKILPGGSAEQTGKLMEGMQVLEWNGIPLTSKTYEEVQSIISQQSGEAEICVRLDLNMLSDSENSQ

[15] = molecular target: MAGI1_2, Q96QZ7
MAGI1_2, Q96QZ7, sequence (Q96QZ7 456-580): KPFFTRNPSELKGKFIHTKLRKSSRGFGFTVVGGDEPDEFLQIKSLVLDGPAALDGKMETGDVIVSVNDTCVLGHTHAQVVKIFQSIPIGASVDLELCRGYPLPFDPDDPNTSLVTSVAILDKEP

[16] = molecular target: T10, GRIP1_3, Q9Y3R0
T10 sequence (Q9Y3R0 247-346, limits assumed, looked up): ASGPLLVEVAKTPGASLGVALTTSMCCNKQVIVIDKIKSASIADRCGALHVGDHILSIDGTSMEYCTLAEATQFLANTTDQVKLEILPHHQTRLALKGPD

[17] = molecular target: DLG4_1, P78352
DLG4_1, P78352, sequence (P78352 62-152): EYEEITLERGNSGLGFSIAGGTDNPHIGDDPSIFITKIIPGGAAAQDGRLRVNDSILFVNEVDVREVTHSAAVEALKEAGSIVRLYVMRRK

[18] = molecular target: PARD3_3, Q8TEW0
PARD3_3, Q8TEW0, sequence (Q8TEW0 582-685): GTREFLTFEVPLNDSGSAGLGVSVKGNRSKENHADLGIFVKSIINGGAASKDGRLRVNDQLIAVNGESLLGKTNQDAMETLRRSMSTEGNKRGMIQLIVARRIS

[19] = molecular target: T11, DFNB31_1, Q9P202
T11 sequence (Q9P202 135-233, limits assumed, looked up): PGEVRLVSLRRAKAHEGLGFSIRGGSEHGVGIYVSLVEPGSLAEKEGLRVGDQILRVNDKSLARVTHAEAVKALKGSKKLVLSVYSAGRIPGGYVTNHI

[20] = molecular target: T12, HTRA4, P83105
T12 sequence (P83105 378-476, limits assumed, looked up): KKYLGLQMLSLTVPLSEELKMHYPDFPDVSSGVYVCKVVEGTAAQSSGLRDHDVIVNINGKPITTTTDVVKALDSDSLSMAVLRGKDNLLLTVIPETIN

[21] = molecular target: DLG1_2, Q12959
DLG1_2, Q12959, sequence (Q12959 314-412): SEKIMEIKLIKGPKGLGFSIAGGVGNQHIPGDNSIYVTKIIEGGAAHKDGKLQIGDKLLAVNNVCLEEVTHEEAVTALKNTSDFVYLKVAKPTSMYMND

[22] = molecular target: IL16_1, Q14005
IL16_1, Q14005, sequence (Q14005 210-306): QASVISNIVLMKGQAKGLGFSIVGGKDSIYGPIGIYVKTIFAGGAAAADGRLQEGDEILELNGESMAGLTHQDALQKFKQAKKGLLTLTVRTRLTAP

[23] = molecular target: LAP2, Q96RT1
LAP2, Q96RT1, sequence (Q96RT1 other isoform, or with tags, fused parts or gaps): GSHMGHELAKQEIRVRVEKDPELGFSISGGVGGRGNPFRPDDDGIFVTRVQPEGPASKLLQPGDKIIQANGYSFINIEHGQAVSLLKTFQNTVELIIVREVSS

[24] = molecular target: GRIP2_4, Q9C0E4
GRIP2_4, Q9C0E4, sequence (Q9C0E4 446-548): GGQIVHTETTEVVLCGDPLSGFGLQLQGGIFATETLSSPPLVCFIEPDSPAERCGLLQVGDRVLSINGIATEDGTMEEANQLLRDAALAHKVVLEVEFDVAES

[25] = plain residues with an end cap or a label only (N-terminal biotin on a linker: ahx)
[26] = plain residues with an end cap or a label only (N-terminal biotin on a linker: ttds)

B1: KCTD3, Q9Y597 (peptide)
chain: SDSSGQEYSL
**Q.** With B1 as the binder, how does the pKd [1, 25] read?
**A.** Its pKd is “below the threshold”.

**Q.** And the pKd [2, 25]?
**A.** The pKd was 3.8.

**Q.** What about the pKd [3, 25] of the same binder?
**A.** Its pKd is “below the threshold”.

**Q.** What about the pKd [4, 25] of the same binder?
**A.** The pKd was “below the threshold”.

**Q.** What about the pKd [5, 25] of the same binder?
**A.** Its pKd is “below the threshold”.

**Q.** And the pKd [6, 25]?
**A.** Its pKd is “below the threshold”.

**Q.** What about the pKd [7, 25] of the same binder?
**A.** Its pKd is “below the threshold”.

**Q.** What about the pKd [8, 25] of the same binder?
**A.** Its pKd is 4.53.

**Q.** What about the pKd [9, 25] of the same binder?
**A.** The pKd was 4.1.

**Q.** What about the pKd [10, 25] of the same binder?
**A.** The pKd was “below the threshold”.

**Q.** What about the pKd [11, 25] of the same binder?
**A.** The pKd was “below the threshold”.

**Q.** What about the pKd [12, 25] of the same binder?
**A.** Its pKd is “below the threshold”.

**Q.** And the pKd [13, 25]?
**A.** Its pKd is “below the threshold”.

**Q.** What about the pKd [14, 25] of the same binder?
**A.** The pKd was “below the threshold”.

**Q.** And the pKd [15, 25]?
**A.** Its pKd is “below the threshold”.

**Q.** What about the pKd [16, 25] of the same binder?
**A.** The pKd was “below the threshold”.

**Q.** What about the pKd [17, 25] of the same binder?
**A.** The pKd was “below the threshold”.

**Q.** What about the pKd [18, 25] of the same binder?
**A.** The pKd was 4.58.

**Q.** What about the pKd [19, 25] of the same binder?
**A.** Its pKd is “below the threshold”.

**Q.** And the pKd [20, 25]?
**A.** Its pKd is “below the threshold”.

**Q.** And the pKd [21, 25]?
**A.** Its pKd is “below the threshold”.

**Q.** And the pKd [22, 25]?
**A.** The pKd was “below the threshold”.

**Q.** What about the pKd [23, 25] of the same binder?
**A.** The pKd was “below the threshold”.

**Q.** And the pKd [24, 25]?
**A.** The pKd was “below the threshold”.

B2: TMIGD1, Q6UXZ0 (peptide)
chain: DKDPHSETAL
**Q.** Which results are given for B2?
**A.** pKd [1, 26]: below the threshold; pKd [2, 26]: 5.42; pKd [3, 26]: below the threshold; pKd [4, 26]: below the threshold; pKd [5, 26]: 4.17; pKd [6, 26]: below the threshold; pKd [7, 26]: below the threshold; pKd [8, 26]: 5.64; pKd [9, 26]: below the threshold; pKd [10, 26]: 3.85; pKd [11, 26]: 3.52; pKd [12, 26]: 4.64; pKd [13, 26]: below the threshold; pKd [14, 26]: below the threshold; pKd [15, 26]: below the threshold; pKd [16, 26]: below the threshold; pKd [17, 26]: below the threshold; pKd [18, 26]: 3.74; pKd [19, 26]: 3.98; pKd [20, 26]: below the threshold; pKd [21, 26]: below the threshold; pKd [22, 26]: below the threshold; pKd [23, 26]: 3.66; pKd [24, 26]: below the threshold

B3: HPV30-E6, P36809 (peptide)
chain: RHTTSTETAV
**Q.** B3 was tested. Which pKd [1, 26] did it give?
**A.** Its pKd is 3.8.

**Q.** What about the pKd [2, 26] of the same binder?
**A.** Its pKd is 4.87.

**Q.** What about the pKd [3, 26] of the same binder?
**A.** The pKd was “below the threshold”.

**Q.** And the pKd [4, 26]?
**A.** The pKd was “below the threshold”.

**Q.** And the pKd [5, 26]?
**A.** The pKd was 4.2.

**Q.** What about the pKd [6, 26] of the same binder?
**A.** The pKd was “below the threshold”.

**Q.** What about the pKd [7, 26] of the same binder?
**A.** The pKd was “below the threshold”.

**Q.** What about the pKd [8, 26] of the same binder?
**A.** The pKd was 5.52.

**Q.** And the pKd [9, 26]?
**A.** The pKd was “below the threshold”.

**Q.** What about the pKd [10, 26] of the same binder?
**A.** The pKd was 4.08.

**Q.** What about the pKd [11, 26] of the same binder?
**A.** Its pKd is “below the threshold”.

**Q.** And the pKd [12, 26]?
**A.** The pKd was 4.68.

**Q.** And the pKd [13, 26]?
**A.** The pKd was “below the threshold”.

**Q.** And the pKd [14, 26]?
**A.** The pKd was “below the threshold”.

**Q.** What about the pKd [15, 26] of the same binder?
**A.** Its pKd is 4.39.

**Q.** And the pKd [16, 26]?
**A.** Its pKd is “below the threshold”.

**Q.** What about the pKd [17, 26] of the same binder?
**A.** The pKd was 4.92.

**Q.** And the pKd [18, 26]?
**A.** Its pKd is “below the threshold”.

**Q.** What about the pKd [19, 26] of the same binder?
**A.** The pKd was 4.27.

**Q.** And the pKd [20, 26]?
**A.** Its pKd is “below the threshold”.

**Q.** What about the pKd [21, 26] of the same binder?
**A.** Its pKd is 5.63.

**Q.** And the pKd [22, 26]?
**A.** The pKd was 4.08.

**Q.** And the pKd [23, 26]?
**A.** Its pKd is 4.46.

**Q.** What about the pKd [24, 26] of the same binder?
**A.** The pKd was 3.66.

From publication PMC9482650, “Quantitative fragmentomics allow affinity mapping of interactomes” (Nature Communications, 2022)
